Test results: PMC3942486, “The Ansamycin Antibiotic, Rifamycin SV, Inhibits BCL6 Transcriptional Repression and Forms a Complex with the BCL6-BTB/POZ Domain” (PLoS ONE, 2014)

Biological target: BCL6-POZ domain (residues 7 to 128 of human BCL6, C8Q, C67R, C84N) (human, UniProt P41182 7-128, cysteine8 mutated to glutamine | cysteine67 mutated to arginine | cysteine84 …)
Assay: fluorescence polarisation; fixed concentration of BODIPY TMR-labelled SMRT peptide, increasing concentration of BCL6-POZ domain; PBS, 0.05% (v/v) Triton X-100, 0.1 mg/mL BSA; room temperature; triplicate; one-site binding (hyperbola) fit
Conditions: both partners purified

| Binder | Kd [µM] |
| --- | --- |
| LVATVKEAGRSIXEIPR (2-naphthylalanine in place of histidine1426; BODIPY TMR dye coupled via the amino-terminal cysteine) [2-naphthyl-SMRT peptide, labelled with BODIPY TMR] | 154 |
| LVATVKEAGRSIXEIPR (1-naphthylalanine in place of histidine1426; BODIPY TMR dye coupled via the amino-terminal cysteine) [1-naphthyl-SMRT peptide, labelled with BODIPY TMR] | 11 |
